According to a protein production outcome set (Wang et al. 2014):

Assay: label from the status in PepcDB records

MIKRDFRKKLTMCLASVMALNLGISVSVKADEGLKNEIKNNDITKDISIYPTPKDMTVGNSEFTLEDSVNIVGGDLADTYAFELLKNMLTEFGIKINESEIEGATTIYIGESDDNIEEMENTLEEMNVDTSSISKDEGYVLVTDENIEGNKIVIRGNDETGTFYGVKSLKQLIKKEDNKVILDEVVIKDEPSFKMRAVVEGFYGTPWSQEERLDQIKMYGEYKMNAYIYAPKSDPYHREKWREPYPASELDRMKELIKTANENKVDFVFAISPGLDIKFEGEEGEADFKALINKAETLYDMGVRSFAILWDDIENRSGVQQAEVLNRFNKEFIKNKEGVKPLITVPVEYWGSSMFNGEEVKTYTKEFAETLDKDIEVMWTGNDVIPPNGVSLEDAKKVSNVYNRKMMLWWNYPVNDYKEDKMALGPIYDLDRNLDEDVSGFIVNPMRFSDASKISTLTGADYGWNSISYEAEKSWDKAIEIIAGEMKEEFKIFANHSTRLDTGRPDSPEIKNTIDSLWEKWEAGSDISLELSNLQNEFSKMVQVPNKLRSNLENKALLNQLDSHLSKFEIYGNAGLKSIEILQDILNKDMSEFWSDNFEGIKLLRNLDGIKATIANNVVDPFIRKVHEVGNEYFNKETTVLEEKEYSYTSIGNIVDHKYSEWFISEETHVPNYMFDDKDNTGFWSAAPVQKDEFIGFDLGEAEEIKDIYLLMGRNNNDTDVLTNGVIEYSLDGENWTELEVNKGERELLVETGIKARFIRYRALSDSENKLYVRDFKVNTGKSKEKLIGDVEVKDSNINKSSEGENEIISASNINKISFEEGDSIGLAINDVKNVIGFEVLGDVESNKFVLESSFDNIEWEEVCNGTSFKDETPLVGKFFRIRAKEKTEANINEIKISLEGYSKGIVSTNRRISSNANIHPDFVADNDYGTSFVCSDTIKKGDFVQLDLGVEKKIRDISLVQGPGGDYMDGDIEYSLDGENWIKLGVVEGTDTLIKDLDVKARYVRVISTGYKDRWSRVREFTVNKTVKEFETKATSEGTYIDRSENIRDNNLNSAYIPEGEIKSGDYLLRRIFNERLVSKVTVAQSTDNLSGAKVIGKTVNGETLDLGVLDKGLNELVLKNPRQLVSVKLVWEKDAGKVEIFEVKPTFVSLDYIIEDIKNEIQRGKDVLVEHKDKENEERTQLEEALKNIENLLNNKASDDEIVRAYEDLTNKINNFIDSEPNKEEENKPSKPEGGENGSEGEGDKEDSGDKNENEDNKDENGNLPNTGSPLGAGELMLVGAALATLGGVTIKKKK
protein production: failed

STNLQEKGLVVSIVDTLMFDTGRAEVKPDFQKKLVEIGEILKTIDNYIRIEGHTDNTPISNSQYASNIELGSARSNNVEHLFIDVSKIPVTQMYTVSYADTRPVADNNSEAGKARNRRVDIVILNSKFNAVEQESSGK
protein production: failed

MNVLLVSVNREHAPYPVFPLGLACLAGPLRAAGHRLSVLDLCFAADPEEATRQALAEFSPDVVVLSLRNIDNVTYPGSRSYLSGVRDVVAICRERAAVVVGGSGFSLMPREVLAYLGADYGVVGEGEDVLPRLLARIAAGEGGDGLPGVVARENAGFLPPHPVQAIGTPLRGLFQVERYHREGGMANIQTKRGCPFSCIYCTYPLLEGERMRLRPVADIIAEIGDLVDVHGVSYLYFVDDIFNYPLEFALELCRAMSAARLPVAWSAFINPDFLPPQLLDAMLAAGCDALEFGTDSGSPVMLRNLRKSFGIEKVREASRLCREAGVDFAHYILFGGPGETPATIAESFALMDEVAPTAVIAMTGIRIFPGTAIYRQALADGLITPETDLLRPAFYIAPTIADTLCELVREEALKRTNWVVPGLEITANDAMLEALRHFAGPGPLWKMLKLLGRRRGSVPSPWSHSPS
protein production: failed

MNPIEFWFDFSSGYAFFAAQRIEALAAELGRTVLWRPYMLGAAFSVTGARGLSSTPLKRDYAQRDWARIARQRGLTFRPPADHPHVALAATRAFYWIEAQSPDAATAFAQRVFDLYFSDRLDTASPEAVSRLGPEVGLEPEALLAGIADPALKETVRKIGEDAVARGIFGSPFFLVDDEPFWGWDRMEMMAEWIRTGGW
protein production: not failed

MSLIIDGHTHVILPVEKHIKIMDEAGVDKTILFSTSIHPETAVNLRDVKKEMKKLNDVVNGKTNSMIDVRRNSIKELTNVIQAYPSRYVGFGNVPVGLSENDTNSYIEENIVNNKLVGIGELTPASGQIKSLKPIFKYSMDSGSLPIWIHAFNPLVLQDIKEIAELCKAFPKVPVILGHMGGSNWMTAVELAKEIQNLYLDTSAYFSTFVLKIVINELPLKCIFGTDMPFGDLQLSIEAIKKMSNDSYVANAVLGDNISRLLNIEGHHHHHH
protein production: not failed

MTMDGDSSTTDASQLGISADYIGGSHYVIQPHDDTEDSMNDHEDTNGSKESFREQDIYLPIANVARIMKNAIPQTGKIAKDAKECVQECVSEFISFITSEASERCHQEKRKTINGEDILFAMSTLGFDSYVEPLKLYLQKFREAMKGEKGIGGAVSATDGLSEELTEEAFTNQLPAGLITADGQQQNVMVYTTSYQQISGVQQIQFS
protein production: failed

MCSYARATDANGESFIYCRTWQGQFFRFKLEDRVYDYVTTFAKSDACLATDPDDPTKIYCALNEYNKITCIDLTKNPEDSGFETDVCGIQGPGAYQDGHVSVARLNNPQQILSMHDPETGEKVIYICDANNNCVRMYNMETKLMSTVAGIGGKSGYAAGNPTVSRMNRPYGICITPENDIYVADAGNKVIMKLAFMLEHHHHHH
protein production: failed

MDKESTKWIRFLGGKNLLYTLTILCLIAVTIFLFNTVSFIFKPIFVIFSAVLGPVLFGIILFYLLNPMVKRLEKKIPRVWAIAILYVLIIALLVLAGLQLFPIIQDQTEELIKQFPSFWKSTLQTVQEFMAKTPFAKDLESANESINQLWGKLANSFKDFAGDYLQTGAQGLGSVFSAVSSTFLTLFTGPIIAFFLLKDKEKFYRFVKGIIPPAFRPDFDEYSQIANIQIGDYLKGQVIASLVLGIMYWPAFLLIGLQFGSILALAAGILCIIPYIGPFIAFIPGLIIAFQDSTFMVVKFVIVWFAIQLIHGDFVIPRVMGDKLKVHPITILLVLLVMGELFGLMGVIFGIPMYCLVKVTVIYLFRKFKQRYNRFYGDNGEYEHTNFTKDQYLK
protein production: failed

MASSEGLASVDPWSFRQNFNIDSWLLSDSFSHDSDILAKALHRSISTSTESSPLSPSSFFDSSTAAVDFSPPQTLSNVSFGSDPEIPAASALGLGKRKRGPGVSGGKQTKRRSRVSNKKSQTTFITADAANFRQMVQQVTGAKFLGSSNSIFAPIVKPEPHRLASRLPPSCGNLDRSSAVPTLDTSSFLSNHHQENIITDLGAPTGSFHHQSSAGTTTANVGGGSSAVELDSYPSFPTLESWKVM
protein production: failed

MRSGKIASEEYKDNPLTSCGTVRYWAAAKAAAGRHEETFTASTLSDLLEQVRQKYEGNAAMLAVLARSSFLVNATPVGVRPHHEVVLEPGWIVEVLPPFAGG
protein production: failed

MAFSPLCGVNCTSRPSASTINTFLTKAQHDVTLTDTDTRIFIKNIKTGVTMEQFRNSLQEFGAMQVYFYEPGSNNDGWAWVGFENKEAALKVIEESEKMQEEMNEENLNEMQNEDNEEQGSNSFYAEDEDKKDEEEEEEEEEY
protein production: failed

EETRTEVEKKNYMNNAEEAKDVLLGVYRTNTLDAMYGYYLSILFNLGTDISQVEGSGNENFRIIPTNSFPTTQSEVQQTWAALYTGIYRANDFLERISNKIGSYTTTDKKLATLYIAEARALRGMFYFELVRRFGNVVLMTSTQMSNQNPATYVQSAPEKVYEYIEDDLLYACDILPYATDDQYRESNDYRFSKGAALGLLTKVYATWAGYPVKDESKWEAAAKTARILVESGKHGLLKDYEQLWKNTCNGTWDPTESLIEISFYSPTVSGNSDPVGRIGKWNGVKTTAIAGVRGSCAANVKVVHTFVLDWREDVSDIRRDLSIANYQYTDTKKSLWVAGASDTDESAAEKDADPTKAQKNKQNYTPAKWDIQKYVTTNSFINNDKSNVNWYFLRYADVLLLYAEALNEWKHGPDAEAYNAINAVRRRGYGNPSNTSACDLPQGLDETSFREAVRKERSYELSFEGHRRQDLIRWGIYYKTVQATAKELGYWWEGTGSPNYSVATYTEEGKHELFPIPQRDMDLCIQFNQNPKW
protein production: not failed

MMEQEIWVRVTRAAAKRKASTAMGIDEDRLNKKRVFLGELLNVSNVNLLSNLN
protein production: failed

MPAKQPTPKQEPATKAGRCLARSFMKTLIKDCSVSAIVAGSIATTISYAGPLVIIFHAAEAAGLSHQQLSSWVWAVSMGSALLGALLSLRYRVPVVIAWSIPGSALLVTALPQLGLEQAVGAYLVANLVLLLIGISGAFDRIIARLPGSIAAGMQAGILFSFGIEVFRALPVQPLLVLAMFVTYVLMRRVQPRYAVAAVLGVGMLVTVASGTLRSEALVLELASPQWITPQFSLSAVFSLALPMVLVALTGQFMPGMAVLRNAGYPTPASPLISASALIGVLLAPFGCHGLNLAAVTASLCTGHEAHENPQRRYVAAVAGSVLYLLLGIAGATLMSLFAAFPAVLIAALAGLALYGAISEALVRSLAEPAERDAGLFTFLVTASGVAFLGLSAAFWGLLFGLLAHALLRLRQPRAREVLRRTP
protein production: not failed

MEESSAAKIQLLKEFKFEKILKDDTKSKIITLYGKIRNEVALLLLEKTAFDLNTIKLDQLATFLQDTKLVENNDVFHWFLSTNFQDCSTLPSVKSTLIWPASETHVYKYSSQKKPMVCETPLMYLKVTKPFIETQRGPQIQWVENILTHKAEAERIVVEDPDPLNGFIVIPDLKWDRQTMSALNLMAIVHATDIASIRDLKYKHIPLLENIRNKVLTEVPKQFSVDKNQLKMFVHYLPSYYHLHVHILHVDHETGDGSAVGRAILLDDVIDRLRNSPDGLENVNITFNIGEQHFLFQPLTNMNA
protein production: not failed

LEEHEQFNHKIVASAPVGISILRIRDGMIILSNELAHNYFRLLSHSDKQNILSIIAEKSSNIVDVVTNNHNHLQISFVNSRYQNEDVAICVLVDISARVKMERSLQNMATAAEQANQAKSMFLATVSHELRTPLYGIIGNL
protein production: failed

NCRLFIGGIPKMKKREEILEEIAKVTEGVLDVIVYASAADKMKNRGFAFVEYESHRAAAMARRKLMPGRIQLWGHQIAVDWAEPEIDVDEDVMETV
protein production: not failed

MTEEKKRGFRIPSSYTVLFIIIAIMAVLTWFIPAGAYETAKGGGVISGTYKTVASNPQGFFDILMAPVRGMLGVEGTDGAIQVSFFILMVGGFLGVVNKTGALDTGIASVVRKNKGREKMLIAILIPLFALGGTTYGMGEETMAFYPLLIPVMIAVGFDSIVAVAIILIGSQIGCLASTINPFATGVAADAAGVSIADGMIWRVIQWVILVGMSIWFVYNYASKIEEDPSKSLVADKEEEHKELFQLQNSGEDLNKRQRNVLTIFTLTFVIMILSLIPWEDFGIKFFTNINTWLTTMPILGGVIGKTMGAFGTWYFPEITMLFIMMGVLVAIVYRMSEEDFFSSFLTGAGEFLGVAMICAIARGIQVIMNGGMITATILHLGETSLSGLSSQVFVILAYIFYLPMSFLIPSTSGLAGATMGIMAPLGQFSNVPAHLVITAFQSASGILNMISPTSAIVMGALALGRVDLGTWWKFIGKFIVMVMLVSVLLLVVATFF
protein production: not failed

GEGTDAIQALIQAYFTAWNTNAPERFAEIFWPDGSWVNVVGMHWRGRDQIVFAHTAFLKTIFKDCKQELVTIEARTIAPGSALAVVTLIQDAYVTPDGRQMPRAHDRLTLLAVEREGVWRFIHGHNTIVNPDAANNDPVLRMKPA
protein production: not failed

FDENWGADEELLLIDACETLGLGNWADIADYVGNARTKEECRDHYLKTYIE
protein production: not failed

MNSPHMDYALAPRASGPASWLETFLVTALVIGVGLWLAPEDPLQVQGEFPWSVLAPLLLGVRYGFVRGLISASLLVAAFFALRHSGLASYAQVAPSYIVGVLVCGMLVGEVRDLWERRLLRLQMANEYRQYRLDDFTRAHQILRVSHDRLEQRLAGSDQSLRSSLLGLRDRLRAAPNGGDPLSLLAEPVLTLLGQYGSLRVAGLYRVEQGASAAPQLSLLASIGTMGPLDSQDLLVRMCLEREELVSVREELLDSGAQASVSSLQACVPLVDTQGQVLAILAVRQMPFFAFQERTLSLLALLAGHIADLLHPDPQVLQLQSADAQHFTRQLKRSLVDVERHGLSGCLYAFELTQPNDELARLFERSQRGLDLHLSLANARGHELLLVLLPLTSAEGAQGYLARLGKLVHEHFGMSVELAGLGVKVLPYDLESARQRDGLRNYLYNECGLNDQQVAV
protein production: failed
